Legend:
Conditions in all cases: transfected HeLa cells; n = 3 per group; parent: est. 1.0; read off a plot
[1] = target: Orai1 (UniProt Q96D31); assay: Co-IP (GLT-1 capture antibody, immunoblot for Orai1, band quantification)
[2] = target: stromal-interacting molecule 1 (STIM1) (UniProt Q13586); assay: Co-IP (STIM1 capture antibody, immunoblot for GLT-1, band quantification)
[3] = target: stromal-interacting molecule 1 (STIM1) (UniProt Q13586); assay: Co-IP (GLT-1 capture antibody, immunoblot for STIM1, band quantification)

Chain of glutamate transporter GLT-1 (excitatory amino acid transporter 2, EAAT2), WT plasmid (P43006 whole entry, stated change not applied): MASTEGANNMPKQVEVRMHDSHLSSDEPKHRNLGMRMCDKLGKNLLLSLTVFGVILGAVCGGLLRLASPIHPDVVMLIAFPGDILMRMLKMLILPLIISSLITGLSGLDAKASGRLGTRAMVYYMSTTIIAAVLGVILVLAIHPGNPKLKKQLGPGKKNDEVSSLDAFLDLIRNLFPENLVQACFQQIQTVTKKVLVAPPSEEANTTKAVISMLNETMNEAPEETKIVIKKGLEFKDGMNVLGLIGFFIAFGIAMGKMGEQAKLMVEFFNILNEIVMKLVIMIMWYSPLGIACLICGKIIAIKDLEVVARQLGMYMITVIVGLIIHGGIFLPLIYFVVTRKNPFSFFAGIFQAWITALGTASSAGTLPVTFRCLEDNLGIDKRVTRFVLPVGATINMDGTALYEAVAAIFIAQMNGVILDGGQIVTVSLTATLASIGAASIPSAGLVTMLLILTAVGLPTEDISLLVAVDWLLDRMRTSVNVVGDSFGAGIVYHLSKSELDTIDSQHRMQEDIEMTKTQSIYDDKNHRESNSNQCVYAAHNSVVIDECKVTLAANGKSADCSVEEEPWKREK
Chain of stromal-interacting molecule 1 (STIM1) (Q13586 23-685): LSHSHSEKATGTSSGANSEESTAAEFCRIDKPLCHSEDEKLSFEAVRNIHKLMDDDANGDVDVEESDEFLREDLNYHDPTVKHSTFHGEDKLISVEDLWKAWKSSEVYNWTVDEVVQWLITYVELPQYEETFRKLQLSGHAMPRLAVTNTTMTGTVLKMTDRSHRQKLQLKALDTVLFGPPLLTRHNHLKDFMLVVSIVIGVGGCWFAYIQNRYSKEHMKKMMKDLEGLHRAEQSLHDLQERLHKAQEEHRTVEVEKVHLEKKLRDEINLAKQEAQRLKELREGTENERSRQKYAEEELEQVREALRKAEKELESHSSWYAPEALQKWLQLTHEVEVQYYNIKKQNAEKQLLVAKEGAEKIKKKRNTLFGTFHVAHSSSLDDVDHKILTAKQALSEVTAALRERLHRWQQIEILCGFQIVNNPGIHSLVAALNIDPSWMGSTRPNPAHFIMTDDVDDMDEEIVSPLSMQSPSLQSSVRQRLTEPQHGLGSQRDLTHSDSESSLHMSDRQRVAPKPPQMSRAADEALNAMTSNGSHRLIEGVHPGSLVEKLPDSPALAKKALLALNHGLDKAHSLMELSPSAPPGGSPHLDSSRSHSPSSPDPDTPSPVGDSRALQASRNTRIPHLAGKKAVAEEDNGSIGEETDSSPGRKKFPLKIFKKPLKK
Chain of Orai1 (Q96D31 whole entry): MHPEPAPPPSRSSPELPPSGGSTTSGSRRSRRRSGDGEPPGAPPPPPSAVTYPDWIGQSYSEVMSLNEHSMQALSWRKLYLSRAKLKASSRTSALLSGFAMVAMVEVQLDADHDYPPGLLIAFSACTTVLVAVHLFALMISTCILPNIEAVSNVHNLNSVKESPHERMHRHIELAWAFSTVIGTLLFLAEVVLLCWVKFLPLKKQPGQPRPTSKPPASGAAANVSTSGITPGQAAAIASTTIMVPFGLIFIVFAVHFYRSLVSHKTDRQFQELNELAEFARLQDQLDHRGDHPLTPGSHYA

response (relative band intensity) [1]: 0.15
response (relative band intensity) [2]: 0.1
response (relative band intensity) [3]: 0.1
Substance: glutamate transporter GLT-1 (excitatory amino acid transporter 2, EAAT2), WT plasmid (from UniProt P43006) P289R

From article PMC9772344
